Test results taken from the supplement of paper PMC7877785.
± gives the uncertainty stated by the source.

Assay: self-splicing fitness, log relative to wild type (ln ratio); higher = more splicing; Tetrahymena group I intron in knt gene, E. coli kanamycin selection, DiMSum; sequences stand for … in CUCUCU…GGAGGGAAAAGUUAUCAGGCAUGCACCUGGUAGCUAGUCUUUAAACCAAUAGAUUGCAUCGGUUUAAAAGGCAAGACCGUCAAAUUGCGGGAAAGGGGUCAACAGCCGUUCAGUACCAAGUCUCAGGGGAAACUUUGAGAUGGCCUUGCAAAGGGUAUGGUAAUAAGCUGACGGACAUGGUCCUAACCACGCAGCCAAGUCCUAAGUCAACAGAUCUUCUGUUGAUAUGGAUGCAGUUCACAGACUAAAUGUCGGUCGGGGAAGAUGUAUUCUUCUCAUAAGAUAUAGUCGGACCUCUCCUUAAUGGGAGCUAGCGGAUGAAGUGAUGCAACACUGGAGCCGCUGGGAACUAAUUUGUAUGCGAAAGUAUAUUGAUUAGUUUUGGAGUACUCGUGGUCG
Procedure, shortened: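 A randomised library covering all eight P1ex-region intron nucleotides was built with the intron in the knt kanamycin-resistance gene on pET-22b(+) and held in E. coli BL21(DE3). Cells were grown overnight at 37°C or 30°C on LB agar, with or without 25 μg/mL kanamycin, plus 100 μg/mL carbenicillin, 50 μM IPTG and 0.2% rhamnose, and pooled colonies were amplicon-sequenced on an Illumina HiSeq 2500. DiMSum fitness is the error-weighted combination of wild-type-normalised replicate fold changes, kanamycin versus none.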

In the case of ACAGAGCAAUAUUACGGUGA, the “self-splicing fitness (ln)” value (30 °C) is reported as -2.32 ± 0.13 and the “self-splicing fitness (ln)” value (37 °C) is reported as -2.41 ± 0.21.
In the case of GCAUAGCAAUAUUACGGUGA, the “self-splicing fitness (ln)” value (30 °C) is reported as -0.491 ± 0.11 and the “self-splicing fitness (ln)” value (37 °C) is reported as 0.678 ± 0.13.
With GUGGAGCAAUAUUACGCUAA the “self-splicing fitness (ln)” value (30 °C) was -2.72 ± 0.25 and the “self-splicing fitness (ln)” value (37 °C) was -1.6 ± 0.19.
For AACCAGCAAUAUUACGCGGU, the “self-splicing fitness (ln)” value (30 °C) was -4.38 ± 0.19 and the “self-splicing fitness (ln)” value (37 °C) was -2.43 ± 0.15.
For UCGGAGCAAUAUUACGUGUC, the “self-splicing fitness (ln)” value (37 °C) was -2.26 ± 0.29.
With GAUGAGCAAUAUUACGGAUC the “self-splicing fitness (ln)” value (30 °C) was -2.36 ± 0.23 and the “self-splicing fitness (ln)” value (37 °C) was -1.78 ± 0.19.
In the case of GCCCAGCAAUAUUACGAGGU, the “self-splicing fitness (ln)” value (30 °C) is reported as -3.81 ± 0.2 and the “self-splicing fitness (ln)” value (37 °C) is reported as -3.07 ± 0.22.
For CACUAGCAAUAUUACGGGGC, the “self-splicing fitness (ln)” value (30 °C) was -3.4 ± 0.17 and the “self-splicing fitness (ln)” value (37 °C) was -2.23 ± 0.14.
With UGUGAGCAAUAUUACGCCUG the “self-splicing fitness (ln)” value (30 °C) was -1.48 ± 0.16 and the “self-splicing fitness (ln)” value (37 °C) was -1.05 ± 0.16.
With UUUGAGCAAUAUUACGCCCU the “self-splicing fitness (ln)” value (30 °C) was -1.25 ± 0.41 and the “self-splicing fitness (ln)” value (37 °C) was -1.96 ± 0.41.
In the case of ACGAAGCAAUAUUACGUGCG, the “self-splicing fitness (ln)” value (30 °C) is reported as -1.35 ± 0.074 and the “self-splicing fitness (ln)” value (37 °C) is reported as -1.36 ± 0.089.
In the case of CCGCAGCAAUAUUACGUCAU, the “self-splicing fitness (ln)” value (30 °C) is reported as -3.18 ± 0.15 and the “self-splicing fitness (ln)” value (37 °C) is reported as -2.25 ± 0.2.
For GGAGAGCAAUAUUACGAUUA, the “self-splicing fitness (ln)” value (37 °C) was -0.884 ± 0.37.
With UGUUAGCAAUAUUACGAGGG the “self-splicing fitness (ln)” value (30 °C) was -3.43 ± 0.26 and the “self-splicing fitness (ln)” value (37 °C) was -1.84 ± 0.23.
For ACCAAGCAAUAUUACGUAGA, the “self-splicing fitness (ln)” value (30 °C) was -2.66 ± 0.14 and the “self-splicing fitness (ln)” value (37 °C) was -2.04 ± 0.16.
With CGUCAGCAAUAUUACGGGCU the “self-splicing fitness (ln)” value (30 °C) was -1.31 ± 0.078 and the “self-splicing fitness (ln)” value (37 °C) was -0.668 ± 0.082.
With GCAUAGCAAUAUUACGCGGG the “self-splicing fitness (ln)” value (30 °C) was -3.23 ± 0.14 and the “self-splicing fitness (ln)” value (37 °C) was -0.875 ± 0.11.
With GGUAAGCAAUAUUACGCUAG the “self-splicing fitness (ln)” value (30 °C) was -4.34 ± 0.36 and the “self-splicing fitness (ln)” value (37 °C) was -2.92 ± 0.29.
With UUAUAGCAAUAUUACGGGAA the “self-splicing fitness (ln)” value (30 °C) was -1.59 ± 0.29 and the “self-splicing fitness (ln)” value (37 °C) was -1.26 ± 0.28.
With CGCAAGCAAUAUUACGCUCU the “self-splicing fitness (ln)” value (30 °C) was -1.26 ± 0.093 and the “self-splicing fitness (ln)” value (37 °C) was -0.475 ± 0.094.
In the case of AGCAAGCAAUAUUACGGCGA, the “self-splicing fitness (ln)” value (30 °C) is reported as -0.386 ± 0.094 and the “self-splicing fitness (ln)” value (37 °C) is reported as -0.039 ± 0.11.
For UUUAAGCAAUAUUACGCACA, the “self-splicing fitness (ln)” value (30 °C) was -0.157 ± 0.068 and the “self-splicing fitness (ln)” value (37 °C) was 0.181 ± 0.086.
With UGCGAGCAAUAUUACGGGUG the “self-splicing fitness (ln)” value (30 °C) was -1.72 ± 0.11 and the “self-splicing fitness (ln)” value (37 °C) was -1.49 ± 0.12.
In the case of AGCUAGCAAUAUUACGUAGC, the “self-splicing fitness (ln)” value (30 °C) is reported as -1.84 ± 0.12 and the “self-splicing fitness (ln)” value (37 °C) is reported as -2.46 ± 0.25.
For UAAUAGCAAUAUUACGGUGG, the “self-splicing fitness (ln)” value (30 °C) was -4.08 ± 0.25 and the “self-splicing fitness (ln)” value (37 °C) was -1.12 ± 0.12.
With ACGAAGCAAUAUUACGACCC the “self-splicing fitness (ln)” value (30 °C) was -0.88 ± 0.22 and the “self-splicing fitness (ln)” value (37 °C) was 0.121 ± 0.26.
With CGCAAGCAAUAUUACGAACU the “self-splicing fitness (ln)” value (30 °C) was -0.966 ± 0.065 and the “self-splicing fitness (ln)” value (37 °C) was -0.369 ± 0.076.
In the case of CGGGAGCAAUAUUACGGGGU, the “self-splicing fitness (ln)” value (30 °C) is reported as -2.03 ± 0.42.
In the case of GGCUAGCAAUAUUACGCAAC, the “self-splicing fitness (ln)” value (30 °C) is reported as -1.61 ± 0.11 and the “self-splicing fitness (ln)” value (37 °C) is reported as -0.72 ± 0.12.
For CGGCAGCAAUAUUACGACGU, the “self-splicing fitness (ln)” value (30 °C) was -1.45 ± 0.066 and the “self-splicing fitness (ln)” value (37 °C) was -0.471 ± 0.071.
With ACAUAGCAAUAUUACGACAC the “self-splicing fitness (ln)” value (30 °C) was -1.62 ± 0.15 and the “self-splicing fitness (ln)” value (37 °C) was -1.29 ± 0.21.
In the case of AUAGAGCAAUAUUACGCCAA, the “self-splicing fitness (ln)” value (30 °C) is reported as -2.44 ± 0.24 and the “self-splicing fitness (ln)” value (37 °C) is reported as -0.839 ± 0.3.
In the case of UUAGAGCAAUAUUACGGUUC, the “self-splicing fitness (ln)” value (30 °C) is reported as -2.42 ± 0.4.
In the case of AGCAAGCAAUAUUACGUACG, the “self-splicing fitness (ln)” value (30 °C) is reported as -1.99 ± 0.13 and the “self-splicing fitness (ln)” value (37 °C) is reported as -0.695 ± 0.11.
In the case of UCUUAGCAAUAUUACGCGGA, the “self-splicing fitness (ln)” value (37 °C) is reported as -2.03 ± 0.41.
In the case of AGGCAGCAAUAUUACGAACU, the “self-splicing fitness (ln)” value (30 °C) is reported as 0.174 ± 0.095 and the “self-splicing fitness (ln)” value (37 °C) is reported as 0.719 ± 0.12.
With AAACAGCAAUAUUACGUCAC the “self-splicing fitness (ln)” value (30 °C) was -4.1 ± 0.23 and the “self-splicing fitness (ln)” value (37 °C) was -2.59 ± 0.2.
For GCCGAGCAAUAUUACGCAAA, the “self-splicing fitness (ln)” value (37 °C) was -1.05 ± 0.34.
With GAGGAGCAAUAUUACGGGCA the “self-splicing fitness (ln)” value (30 °C) was -1.33 ± 0.32 and the “self-splicing fitness (ln)” value (37 °C) was -3.44 ± 0.47.
In the case of GAGAAGCAAUAUUACGUAUC, the “self-splicing fitness (ln)” value (30 °C) is reported as -3.78 ± 0.37 and the “self-splicing fitness (ln)” value (37 °C) is reported as -3.21 ± 0.35.
For GGGCAGCAAUAUUACGCCUU, the “self-splicing fitness (ln)” value (30 °C) was -3.55 ± 0.29 and the “self-splicing fitness (ln)” value (37 °C) was -2.13 ± 0.22.
With UUCGAGCAAUAUUACGAGGG the “self-splicing fitness (ln)” value (30 °C) was -3.94 ± 0.3 and the “self-splicing fitness (ln)” value (37 °C) was -3.12 ± 0.37.
In the case of GUGCAGCAAUAUUACGGAGA, the “self-splicing fitness (ln)” value (37 °C) is reported as -1.86 ± 0.38.
For AUUAAGCAAUAUUACGCACC, the “self-splicing fitness (ln)” value (30 °C) was -1.52 ± 0.19 and the “self-splicing fitness (ln)” value (37 °C) was 0.0961 ± 0.28.
